Data on one molecule can be found in PMC4672733 (Immunity, 2015).

In this assay the target is T1, GST-CARD9 (human, UniProt Q9H257 1-536).
T1 sequence (looked up): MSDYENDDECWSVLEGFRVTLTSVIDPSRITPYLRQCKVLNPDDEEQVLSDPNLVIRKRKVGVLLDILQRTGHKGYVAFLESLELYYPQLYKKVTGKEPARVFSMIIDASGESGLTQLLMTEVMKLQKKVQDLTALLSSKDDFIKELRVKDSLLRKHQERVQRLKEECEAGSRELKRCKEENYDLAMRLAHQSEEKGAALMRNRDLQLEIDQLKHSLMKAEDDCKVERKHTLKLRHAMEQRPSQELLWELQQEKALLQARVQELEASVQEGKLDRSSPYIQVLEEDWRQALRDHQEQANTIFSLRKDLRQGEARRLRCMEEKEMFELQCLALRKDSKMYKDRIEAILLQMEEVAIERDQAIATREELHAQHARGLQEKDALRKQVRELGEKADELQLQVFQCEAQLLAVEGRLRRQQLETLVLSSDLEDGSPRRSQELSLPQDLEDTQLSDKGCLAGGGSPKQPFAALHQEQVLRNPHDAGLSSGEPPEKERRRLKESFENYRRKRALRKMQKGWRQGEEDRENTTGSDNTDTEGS
The assay can be described thus: ELISA. (In general: In an ELISA, binding on a coated surface is turned into a signal by an enzyme label.)

B1: purified FLAG-tagged CARD9 WT (natural protein, human, UniProt Q9H257 1-536, looked up)
chain: T1 sequence (looked up)
Turning to B1, the binding result is “binds”.
